This data set in a line: self-splicing fitness, log relative to wild type (ln ratio); higher = more splicing; Tetrahymena group I intron in knt gene, E. coli kanamycin selection, DiMSum; sequences stand for … in CUCUCU…GGAGGGAAAAGUUAUCAGGCAUGCACCUGGUAGCUAGUCUUUAAACCAAUAGAUUGCAUCGGUUUAAAAGGCAAGACCGUCAAAUUGCGGGAAAGGGGUCAACAGCCGUUCAGUACCAAGUCUCAGGGGAAACUUUGAGAUGGCCUUGCAAAGGGUAUGGUAAUAAGCUGACGGACAUGGUCCUAACCACGCAGCCAAGUCCUAAGUCAACAGAUCUUCUGUUGAUAUGGAUGCAGUUCACAGACUAAAUGUCGGUCGGGGAAGAUGUAUUCUUCUCAUAAGAUAUAGUCGGACCUCUCCUUAAUGGGAGCUAGCGGAUGAAGUGAUGCAACACUGGAGCCGCUGGGAACUAAUUUGUAUGCGAAAGUAUAUUGAUUAGUUUUGGAGUACUCGUGGUCG
The gist of the method:
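Colonies from six replicate transformations of E. coli BL21(DE3) were pooled and amplicon-sequenced on an Illumina HiSeq 2500. The library placed an intron with all eight P1ex-region nucleotides randomised inside the knt kanamycin-resistance gene on pET-22b(+), and cells grew overnight at 37°C or 30°C on LB agar with or without 25 μg/mL kanamycin (plus 100 μg/mL carbenicillin, 50 μM IPTG, 0.2% rhamnose). Fitness is the DiMSum error-weighted combination of wild-type-normalised replicate fold changes, kanamycin versus none.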

± gives the uncertainty stated by the source.

In the case of UGCUAGCAAUAUUACGACGU, the “self-splicing fitness (ln)” value runs as follows: (30 °C) -1.71 ± 0.22; (37 °C) -2.36 ± 0.32.
The like results for UGCUAGCAAUAUUACGAGGG were, in that order, -2.22 ± 0.15 and -2.43 ± 0.19.
With UGCUAGCAAUAUUACGCGCC, the “self-splicing fitness (ln)” value is, setting by setting: (30 °C) -1.26 ± 0.2; (37 °C) -0.477 ± 0.29.
The like results for UGCUAGCAAUAUUACGCGGG were, in that order, -3.41 ± 0.28 and -2.38 ± 0.31.
In the case of UGCUAGCAAUAUUACGGACU, the “self-splicing fitness (ln)” value (30 °C) is -0.341 ± 0.1 and the “self-splicing fitness (ln)” value (37 °C) is -0.639 ± 0.088.
Turning to UGCUAGCAAUAUUACGGCAG, the “self-splicing fitness (ln)” value by setting is: (30 °C) -2.52 ± 0.12; (37 °C) -1.1 ± 0.13.
The like results for UGCUAGCAAUAUUACGGUCG were, in that order, 0.0903 ± 0.098 and 0.362 ± 0.14.
For UGCUAGCAAUAUUACGUACC, the “self-splicing fitness (ln)” value (37 °C) stood at 0.784 ± 0.4.
As for UGCUAGCAAUAUUACGUAGA, the “self-splicing fitness (ln)” value reads like this: (30 °C) -2.3 ± 0.18; (37 °C) -0.929 ± 0.17.
In the same order, the values of UGCUAGCAAUAUUACGUAUA are -2.81 ± 0.24 and -1.1 ± 0.16.
Regarding UGCUAGCAAUAUUACGUGCU, the “self-splicing fitness (ln)” value runs as follows: (30 °C) -2.31 ± 0.16; (37 °C) -2 ± 0.17.
The like results for UGCUAGCAAUAUUACGUGGG were, in that order, -3.58 ± 0.27 and -3.28 ± 0.35.
In the same order, the values of UGCUAGCAAUAUUACGUUAA are -2.54 ± 0.14 and -0.941 ± 0.11.
For UGCUAGCAAUAUUACGUUGG, the “self-splicing fitness (ln)” value (30 °C) is -3.3 ± 0.19 and the “self-splicing fitness (ln)” value (37 °C) is -2.49 ± 0.2.
The like results for UGGAAGCAAUAUUACGAACG were, in that order, -0.465 ± 0.24 and -0.592 ± 0.32.
Turning to UGGAAGCAAUAUUACGACAA, the “self-splicing fitness (ln)” value is -1.46 ± 0.14 (30 °C) and -1.88 ± 0.17 (37 °C).
On to UGGAAGCAAUAUUACGACCU, for which the “self-splicing fitness (ln)” value came out at 0.308 ± 0.11 (30 °C) and 0.699 ± 0.12 (37 °C).
With UGGAAGCAAUAUUACGAGGA, the “self-splicing fitness (ln)” value by setting is: (30 °C) -2.94 ± 0.4; (37 °C) -2.82 ± 0.4.
UGGAAGCAAUAUUACGAGGG: the “self-splicing fitness (ln)” value (37 °C) is -1.89 ± 0.34.
On to UGGAAGCAAUAUUACGCAAA, for which the “self-splicing fitness (ln)” value by setting is: (30 °C) -1.24 ± 0.16; (37 °C) -0.937 ± 0.16.
On to UGGAAGCAAUAUUACGCACU, for which the “self-splicing fitness (ln)” value was -0.488 ± 0.12 (30 °C) and -0.124 ± 0.15 (37 °C).
Consider UGGAAGCAAUAUUACGCAUU, for which, where the note is “30 °C”, the “self-splicing fitness (ln)” value was -2.63 ± 0.27.
On to UGGAAGCAAUAUUACGCCCA, for which the “self-splicing fitness (ln)” value (37 °C) is -0.992 ± 0.45.
On to UGGAAGCAAUAUUACGCCCG, for which the “self-splicing fitness (ln)” value is, setting by setting: (30 °C) -0.383 ± 0.22; (37 °C) 0.191 ± 0.27.
The like results for UGGAAGCAAUAUUACGCGUC were, in that order, -0.409 ± 0.2 and -1.89 ± 0.27.
UGGAAGCAAUAUUACGGACG: the “self-splicing fitness (ln)” value runs as follows: (30 °C) -1.13 ± 0.16; (37 °C) 0.0618 ± 0.28.
In the same order, the values of UGGAAGCAAUAUUACGGAGU are -3.51 ± 0.22 and -2.75 ± 0.22.
UGGAAGCAAUAUUACGGCAC: where the note is “37 °C”, the “self-splicing fitness (ln)” value was -1.36 ± 0.37.
For the sequence UGGAAGCAAUAUUACGGCCC, the “self-splicing fitness (ln)” value is, setting by setting: (30 °C) -0.223 ± 0.15; (37 °C) 0.256 ± 0.18.
As for UGGAAGCAAUAUUACGGCUG, the “self-splicing fitness (ln)” value by setting is: (30 °C) -0.475 ± 0.099; (37 °C) 1.02 ± 0.12.
With UGGAAGCAAUAUUACGGGUG, the “self-splicing fitness (ln)” value was -1.07 ± 0.063 (30 °C) and -0.839 ± 0.083 (37 °C).
For the sequence UGGAAGCAAUAUUACGGUAA, the “self-splicing fitness (ln)” value was -1.48 ± 0.18 (30 °C) and -0.845 ± 0.14 (37 °C).

(Values after the supplement of paper PMC7877785.)
